Measurements taken from patent US20090253622A1, “USE OF TLR3 AGONISTS FOR THE TREATMENT OF NEURODEGENERATIVE DISORDERS” (Nederlandse Organisatie voor toegepast - …, priority 2006, published 2009).
“Also recorded” adds a separate entry of the source.

What was measured:
[1] = tested on: astrocytes from TLR3-deficient mice; assay: IL-6 release by astrocytes from TLR3-deficient mice (ELISA); assay type: cell-based; conditions: TLR3-deficient mouse astrocytes, 48 h
Protocol: Astrocytes were cultured in poly L-lysine coated 96 well-flat-bottom plates at 1×10^4 cells per well in 100 l DMEM/HAM-F10 medium containing 10% FCS and antibiotic supplements for 24 h to obtain post-confluent cultures. Recombinant human stathmin was next added to astrocytes, and parallel control stimuli were performed with either poly I:C, an established TLR3 agonist, or ultrapure lipopolysaccharides, established TLR4 agonists. After addition of these stimuli astrocytes were incubated for another 48 h. Astrocyte culture supernatants were subsequently collected and using a commercial ELISA kit levels of IL-6 were determined, as a marker for TLR-mediated activation of murine astrocytes.

[2] = tested on: TLR3; assay: CXCL8 release by cultured human astrocytes (ELISA); assay type: cell-based
Protocol: Cos-7 cells (25,000 cells per well in 96-well plates) were transfected for 5 h with 768 pools of cDNA derived from human brain tumours (5 pooled tumours including meningioma, oligodendroglioma, astrocytoma grades II and IV, and medulloblastoma; NCI CGAP Brn35; Invitrogen) using lipofectamine, after which cells were thoroughly washed. Transfection with green-fluorescent protein-encoding cDNA was used as an internal control for transfection efficiencies. After continued culture of the transfected cells for 48 h, 75 μL of each culture supernatant was harvested and added to cultured human astrocytes seeded at 1,000 cells per well in 75 μL. After 48 h of culture, supernatants were harvested and evaluated for CXCL8 release using ELISA. Stimulation of astrocytes with poly I:C served as positive controls for CXCL8 release in all cases, non-transfected Cos 7 culture supernatants as negative controls.
(§1) Purified recombinant stathmin was exposed to two different conditions that differentially affect the extent of helix formation within the protein chain. One part of the protein preparation was exposed to 5% trifluoroacetic acid (TFA) in water for 1 h at 37° C., strongly acidic conditions that tend to disrupt an alpha helix. In parallel, another part was exposed for 1 h at 37° C. to 5% of the helix-promoting solvent trifluoroethanol (TFE) in phosphate-buffered saline (PBS). After exposure to these different conditions, both protein samples were extensively dialysed for 48 h against several changes of PBS. Next, the samples were analyzed by […] circular dichroism spectroscopy that allows calculation of helical content on the basis of elipticity in the absorption of circularly polarized light. In both cases, another part of the dialyzed sample was tested in parallel for induction of TLR3-mediated release of CXCL8 (IL-8) in human astrocytes as described elsewhere in this application.

[3] = biological target: T1, TLR2 (Homo sapiens, UniProt O60603); assay: HEK293 transfectant cells, TLR2 activation; assay type: cell-based; conditions: at levels of at least 50 μg/mL
T1 construct: expressed in transfected cells; host or cells: HEK293
T1 sequence (O60603 21-784, species assumed): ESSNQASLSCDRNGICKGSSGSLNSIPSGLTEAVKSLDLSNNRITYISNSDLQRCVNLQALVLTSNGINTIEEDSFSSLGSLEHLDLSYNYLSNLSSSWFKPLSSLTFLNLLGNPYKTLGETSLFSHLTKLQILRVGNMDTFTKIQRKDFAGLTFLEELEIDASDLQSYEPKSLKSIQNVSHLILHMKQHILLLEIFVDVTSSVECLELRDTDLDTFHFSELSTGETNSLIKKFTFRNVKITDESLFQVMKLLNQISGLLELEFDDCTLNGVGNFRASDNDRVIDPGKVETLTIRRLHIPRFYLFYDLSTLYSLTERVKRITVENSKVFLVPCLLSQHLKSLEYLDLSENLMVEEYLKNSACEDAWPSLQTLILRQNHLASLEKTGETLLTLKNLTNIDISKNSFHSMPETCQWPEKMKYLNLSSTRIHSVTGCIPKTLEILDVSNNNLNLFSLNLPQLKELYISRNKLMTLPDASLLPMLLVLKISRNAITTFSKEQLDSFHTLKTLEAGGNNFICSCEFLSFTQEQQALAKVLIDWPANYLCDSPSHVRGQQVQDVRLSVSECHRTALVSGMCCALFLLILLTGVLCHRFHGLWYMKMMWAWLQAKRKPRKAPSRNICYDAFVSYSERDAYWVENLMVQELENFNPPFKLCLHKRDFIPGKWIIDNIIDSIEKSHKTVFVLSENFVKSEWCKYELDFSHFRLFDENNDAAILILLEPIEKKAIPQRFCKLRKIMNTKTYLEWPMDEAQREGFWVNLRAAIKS
Protocol: Additional control experiments using murine astrocytes or transfected HEK293 cells were performed essentially as described previously by several other research groups.

[4] = purified recombinant protein in buffers similar to culture media; Steinmetz and colleagues; cited from earlier work
[5] = tested on: pre-dendritic cells (pre-DC); assay: CXCL8 accumulation in culture of human pre-dendritic cells; assay type: cell-based; conditions: 24 h, varying doses, two donors
Description: (§2) Peripheral blood mononuclear cells (PBMC) were isolated from two healthy blood donors and from part of the cells, CD14^+ monocytes were isolated by positive selection using magnetic beads coated with an antibody against CD14. The purified CD14^+ monocytes were subsequently cultured for 5 days in the presence of IL-4 and granulocyte-macrophage colony stimulating factor (GM-CSF). These growth factors induce differentiation of monocytes into pre-dendritic cells (pre-DC) within this time frame. At this stage part of the pre-DC culture was stimulated with a mixture of IL-1β and TNF-α for another 2 days in culture, thus stimulating final maturation of the cells into plasmacytoid dendritic cells (DC).
(§3) Using this differentiation method, separate populations of PBMC, pre-DC and DC were generated and after washing of the cells to remove all previously used stimuli, cells were subsequently re-cultured in fresh medium and tested for their response to either poly I:C, stathmin or LPS. Accumulation of CXCL8 in the culture medium over a 24-h period was used as a measure for cellular activation.

[6] = tested on: plasmacytoid dendritic cells (DC); assay: CXCL8 accumulation in culture of human mature plasmacytoid dendritic cells; assay type: cell-based; conditions: 24 h, varying doses, two donors
Description: as §2, §3

[7] = Circular dichroism spectroscopy, helical content; assay type: physicochemical; conditions: dissolved in 50% TFE in PBS, without dialysis
Protocol: as §1, with “[…] […]” for “In parallel, another part was exposed for 1 h at 37° C. to 5% of the helix-promoting solvent trifluoroethanol (TFE) in phosphate-buffered saline (PBS). After exposure to these different conditions, both protein samples were extensively dialysed for 48 h against several changes of PBS.”

B1: stathmin: cytosolic phosphoprotein of 149 amino acids (SEQ ID NO: 1); purified recombinant human stathmin from a commercial source (protein)
chain: MASSDIQVKELEKRASGQAFELILSPRSKESVPEFPLSPPKKKDFSLEEIQKKLEAAEERRKSHEAEVLKQLAEKREHEKEVLQKAIEENNNFSKMAEEKITHKMEANKENREAQMAAKLERLREKDKHIEEVRKNKESKDPADETEAD
modifications: Human; (44)..(138) Stathmin-like alpha helix domain
notes: purified recombinant human stathmin from a commercial source
Which results are given for B1?
IL-6 release [1]: completely absent; also recorded: fully abrogated; astrocyte CXCL8 response, dose dependence ([2]; at 100 μg/mL): still not maximal; CXCL8 release by cultured human astrocytes (in words) ([2]; doses between 5 and 100 μg/mL, four donors): marked CXCL8 release; stathmin-induced response under TLR3-directed small interfering RNA ([2]; human astrocytes, three TLR3 siRNAs): largely—in one case completely—inhibited; response of HEK293 transfectant cells via TLR2 [3]: does not contain any endotoxin contaminants that trigger responses; fraction structurally ordered into alpha helix [4]: 40-60%; CXCL8 accumulation in the culture medium [5]: substantial increase in CXCL8 accumulation; CXCL8 accumulation in the culture medium [6]: substantial increase in CXCL8 accumulation; helical content [7]: 98%
